{"source": "paper PMC3448610", "binders": {"B1": {"name": "wild-type human Macrophage Migration Inhibitory Factor, P14174 1-115 (natural protein)", "chain": "MPMFIVNTNVPRASVPDGFLSELTQQLAQATGKPPQYIAVHVVPDQLMAFGGSSEPCALCSLHSIGKIGGAQNRSYSKLLCGLLAERLRISPDRVYINYYDMNAANVGWNNSTFA"}}, "key": {"[1]": {"target": "T1, wild-type human Macrophage Migration Inhibitory Factor (human), P14174", "T1 chain": "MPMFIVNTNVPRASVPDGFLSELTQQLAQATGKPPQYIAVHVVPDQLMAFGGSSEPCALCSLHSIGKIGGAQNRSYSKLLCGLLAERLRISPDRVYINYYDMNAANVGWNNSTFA", "assay": "static light scattering (multi-angle); purified MIF 20-30 µM in PBS 1X, room temperature, DAWN HELEOS II with UV and refractive index detectors; oligomeric state of the protein with itself", "conditions": "remark: other sources report otherwise"}, "[2]": {"target": "T1, wild-type human Macrophage Migration …", "assay": "AUC; sedimentation velocity, 50,000 rpm, 20°C, PBS 1X pH 7.4, protein 5-50 µM (15 µM in Figure 3); c(s) analysis with SEDFIT; oligomeric state of the protein with itself", "conditions": "remark: other sources report otherwise"}}}
{"binder": "B1", "values": [{"measurement": "stoichiometry N", "setting": "[1]", "value": 3}, {"measurement": "stoichiometry N", "setting": "[2]", "value": 3}]}
